B1: Hairpin Ribozyme (parent)
chain: GUCCUCUUUCACGUGCGCGUGAAAGAGAGAAGUGAACCAGAGAAACACACGUUGUGGUAUAUUACCUGGUA

Variants of B1 are the subject of the series. The experiment in a line: self-cleavage, relative activity (ratio to wild type); higher = more cleavage; co-transcriptional.
With GUCCGCUUUCACGUGCGCCUGAAAGAGAGAAGUGAACCAGAGAAACACACGUUGUGGUAUAUUACCUGGUA, the self-cleavage is 0.202.

Take GUCCGCUUUCACGUGCGCGUGAAAGAGAGAAGUGAACCAGAGAAAUACACGUUGUGGUAUAUUACCUGGUA: the self-cleavage is 0.279.

For the variant GUCCGCUUUCACGUGCGCGUGAAAGAGAGAAGUGAACCAGAGAAAGACACGUUGUGGUAUAUUACCUGGUA, the self-cleavage came to 0.243.

Turning to GUCCGCUAUCACGUGCGCGUGAAAGAGAGAAGUGAACCAGAGAAACACACGUUGUGGUAUAUUACCUGGUA, the self-cleavage amounted to 0.126.

On to GUCCGCUUUCACGUGCGCGUCAAAGAGAGAAGUGAACCAGAGAAACACACGUUGUGGUAUAUUACCUGGUA, for which the self-cleavage turned out to be 0.177.

In the case of GUCCGCUUUCACGUGCGCGUGAAAGACAGAAGUGAACCAGAGAAACACACGUUGUGGUAUAUUACCUGGUA, the self-cleavage was 0.0408.

Turning to GUCCGUUUUCACGUGCGCGUGAAAGAGAGAAGUGAACCAGAGAAACACACGUUGUGGUAUAUUACCUGGUA, the self-cleavage is 0.151.

As to GUCCGAUUUCACGUGCGCGUGAAAGAGAGAAGUGAACCAGAGAAACACACGUUGUGGUAUAUUACCUGGUA, the self-cleavage came to 0.321.

Take GUCCGGUUUCACGUGCGCGUGAAAGAGAGAAGUGAACCAGAGAAACACACGUUGUGGUAUAUUACCUGGUA: the self-cleavage was determined as 0.224.

Turning to GUCCGCUUUCACGUGCGCGUGAAAGAGAGAAGUGAACCAGAGAAACACACGUUGUGGUAUAUUACCCGGUA, the self-cleavage amounted to 0.117.

With GUCCGCUUUCACGUGCGCGUGAAAGAGAGAAGUGAACCAGAGAAACACACGUUGUGGUAUAUUACCAGGUA, the self-cleavage worked out at 0.275.

As for GUCCGCUUUCACGUGCGCGUGAAAGAGAGAAGUGAACCAGAGAAACACACGUCGUGGUAUAUUACCUGGUA, the self-cleavage turned out to be 0.0534.

As for GUCCGCUUUCAGGUGCGCGUGAAAGAGAGAAGUGAACCAGAGAAACACACGUUGUGGUAUAUUACCUGGUA, the self-cleavage came out at 0.239.

With GUCCGCUUUCAUGUGCGCGUGAAAGAGAGAAGUGAACCAGAGAAACACACGUUGUGGUAUAUUACCUGGUA, the self-cleavage worked out at 0.529.

GUCCGCUUUCACGUGCGCGUGAAAGAGAGAAGUGAACCAGAGAAACACACGUUGUGGUAUAUUACGUGGUA: the self-cleavage was determined as 0.127.

As to GUCCUAUUUCACGUGCGCGUGAAAGAGAGAAGUGAACCAGAGAAACACCCGUUGUGGUAUAUUACCUGGUA, the self-cleavage amounted to 0.112.

Turning to GUCCUAUUUCACGUGCGCGUGAAAGAGAGAGGUGAACCAGAGAAACACACGUUGUGGUAUAUUACCUGGUA, the self-cleavage was found to be 0.446.

As to GUCCUAUUUCACGUGCGCGUGAAAGAGAGACGUGAACCAGAGAAACACACGUUGUGGUAUAUUACCUGGUA, the self-cleavage turned out to be 0.1.

For GUCCUAUUUCACGUGCGCGUGAAAGAGAGAUGUGAACCAGAGAAACACACGUUGUGGUAUAUUACCUGGUA, the self-cleavage came to 0.0881.

In the case of GUCCGCUUUCACGUGCGCGUGAAAGAGAGAAGUGAACCAGAGAAACAGACGUUGUGGUAUAUUACCUGGUA, the self-cleavage was determined as 0.0331.

Take GUCCGCUUUCACGUGCGCGUGAAAGAGAGAAGUGAACCAGAGAAACAAACGUUGUGGUAUAUUACCUGGUA: the self-cleavage amounted to 0.125.

Consider GUCCGCUUUCACGUGCGCGUGAAAGAGAGAACUGAACCAGAGAAACACACGUUGUGGUAUAUUACCUGGUA, for which the self-cleavage worked out at 0.091.

As for GUCCUAUUUCACGUGCGCGUGAAAGAGAGAAGUGACCCAGAGAAACACACGUUGUGGUAUAUUACCUGGUA, the self-cleavage stood at 0.393.

As for GUCCUAUUUCACGUGCGCGUGAAAGAGAGAAGUGAUCCAGAGAAACACACGUUGUGGUAUAUUACCUGGUA, the self-cleavage came out at 0.384.

GUCCUAUUUCACGUGCGCGUGAAAGAGAGAAGUGAGCCAGAGAAACACACGUUGUGGUAUAUUACCUGGUA: the self-cleavage was 0.595.

In the case of GUCCGCUUUCACGUGCGCGUGAAAGAGAGAAGUGAACCAGAGAAACACACAUUGUGGUAUAUUACCUGGUA, the self-cleavage worked out at 0.377.

On to GUCCGCUUUCACGUGCGCGUGAAAGAGAGAAGUGAACCAGAGAAACACACCUUGUGGUAUAUUACCUGGUA, for which the self-cleavage stood at 0.221.

On to GUCCGCUUUCACGUGCGCGUGAAAGAGAGAAGUGAACCAGAGAAACACACGUUGUGGUUUAUUACCUGGUA, for which the self-cleavage is 0.0694.

Take GUCCGCUUUCACGUGGGCGUGAAAGAGAGAAGUGAACCAGAGAAACACACGUUGUGGUAUAUUACCUGGUA: the self-cleavage was found to be 0.146.

For GUCCGCUUUCACGUGUGCGUGAAAGAGAGAAGUGAACCAGAGAAACACACGUUGUGGUAUAUUACCUGGUA, the self-cleavage came out at 0.269.

On to GUCCGCUUUUACGUGCGCGUGAAAGAGAGAAGUGAACCAGAGAAACACACGUUGUGGUAUAUUACCUGGUA, for which the self-cleavage amounted to 0.317.

Turning to GUCCGCUUUCACGUGCGAGUGAAAGAGAGAAGUGAACCAGAGAAACACACGUUGUGGUAUAUUACCUGGUA, the self-cleavage was 0.37.

For the variant GUCCUAUUUCACGUGCGCGUGAAAGAGAGAAGUGAACCGGAGAAACACACGUUGUGGUAUAUUACCUGGUA, the self-cleavage was determined as 0.243.

With GUCCUAUUUCACGUGCGCGUGAAAGAGAGAAGUGAACCUGAGAAACACACGUUGUGGUAUAUUACCUGGUA, the self-cleavage was found to be 0.33.

For GUCCGCUUUCACGUGCGCGUGAAAUAGAGAAGUGAACCAGAGAAACACACGUUGUGGUAUAUUACCUGGUA, the self-cleavage turned out to be 0.306.

For the variant GUCCGCUUUCACGUGCGCGUGAAAGAGAGAAGUGAACCAGAGAAACACACGUUGUGGUAUAUGACCUGGUA, the self-cleavage was 0.0714.

On to GUCCGCUUUCACGUGCGCGUGAAAGAGAGAAGUGAACCAGAGAAACACACGUUGUGGUAUAUAACCUGGUA, for which the self-cleavage stood at 0.127.

For the variant GUCCGCUUUCACGUGCGCGUGAAAGAGAGAAGUGAACCAGAGAAACACACGUUGUCGUAUAUUACCUGGUA, the self-cleavage came out at 0.124.

The values above are taken from the RNAGym collection of RNA variant scans (doi:10.7554/elife.80360).
